This note sets out measurements from paper PMC9970984.

This experiment has as its target RNA polymerase II (RNAP II), endogenous. The experiment is described as follows: Co-IP (IP: myc, Western blot for RNA Pol II, band intensity printed below lanes). Conditions: HCT116 cells transfected with myc-KAT8 WT or myc-KAT8 2KR plasmid; parent: 1.0. For orientation: A western blot detects proteins with antibodies after separation by electrophoresis.

On to “myc-KAT8 (lysine acetyltransferase 8), wild type (from UniProt Q9H7Z6) K168R; K175R”, for which the ratio to parent was determined as 3.5.
